{
  "source": "the Immune Epitope Database (IEDB)",
  "key": {"HLA-A*02:01 [1]": {"target": "HLA-A*02:01", "experiment": "IEDB peptide-MHC binding, purified MHC/competitive/fluorescence; ≥ and ≤ were set here for values at or beyond the usual limits of such assays", "conditions": "source organism: Zaire ebolavirus"}, "HLA-A*03:01": {"target": "HLA-A*03:01", "experiment": "IEDB peptide-MHC binding, purified MHC/competitive/fluorescence; ≥ and ≤ were set here for values at or beyond the usual limits of such assays", "conditions": "source organism: Zaire ebolavirus"}, "HLA-A*11:01": {"target": "HLA-A*11:01", "experiment": "IEDB peptide-MHC binding, purified MHC/competitive/fluorescence; ≥ and ≤ were set here for values at or beyond the usual limits of such assays", "conditions": "source organism: Zaire ebolavirus"}, "HLA-A*24:02 [2]": {"target": "HLA-A*24:02", "experiment": "IEDB peptide-MHC binding, purified MHC/competitive/fluorescence; ≥ and ≤ were set here for values at or beyond the usual limits of such assays", "conditions": "source organism: Zaire ebolavirus"}, "HLA-B*15:01 [3]": {"target": "HLA-B*15:01", "experiment": "IEDB peptide-MHC binding, purified MHC/competitive/fluorescence; ≥ and ≤ were set here for values at or beyond the usual limits of such assays", "conditions": "source organism: Zaire ebolavirus"}, "HLA-A*24:02 [4]": {"target": "HLA-A*24:02", "experiment": "IEDB peptide-MHC binding, purified MHC/competitive/fluorescence; filed as Kd, often an IC50 or EC50 that approximates it; ≥ and ≤ were set here for values at or beyond the usual limits of such assays"}, "HLA-B*18:01": {"target": "HLA-B*18:01", "experiment": "IEDB peptide-MHC binding, purified MHC/competitive/radioactivity; filed as Kd, often an IC50 or EC50 that approximates it; ≥ and ≤ were set here for values at or beyond the usual limits of such assays"}, "HLA-B*40:01": {"target": "HLA-B*40:01", "experiment": "IEDB peptide-MHC binding, purified MHC/competitive/radioactivity; filed as Kd, often an IC50 or EC50 that approximates it; ≥ and ≤ were set here for values at or beyond the usual limits of such assays"}, "HLA-B*40:02": {"target": "HLA-B*40:02", "experiment": "IEDB peptide-MHC binding, purified MHC/competitive/radioactivity; filed as Kd, often an IC50 or EC50 that approximates it; ≥ and ≤ were set here for values at or beyond the usual limits of such assays"}, "HLA-B*44:02": {"target": "HLA-B*44:02", "experiment": "IEDB peptide-MHC binding, purified MHC/competitive/radioactivity; filed as Kd, often an IC50 or EC50 that approximates it; ≥ and ≤ were set here for values at or beyond the usual limits of such assays"}, "HLA-B*44:03": {"target": "HLA-B*44:03", "experiment": "IEDB peptide-MHC binding, purified MHC/competitive/radioactivity; filed as Kd, often an IC50 or EC50 that approximates it; ≥ and ≤ were set here for values at or beyond the usual limits of such assays"}, "HLA-B*45:01": {"target": "HLA-B*45:01", "experiment": "IEDB peptide-MHC binding, purified MHC/competitive/radioactivity; filed as Kd, often an IC50 or EC50 that approximates it; ≥ and ≤ were set here for values at or beyond the usual limits of such assays"}, "HLA-A*02:17": {"target": "HLA-A*02:17", "experiment": "IEDB peptide-MHC binding, purified MHC/competitive/radioactivity; filed as Kd, often an IC50 or EC50 that approximates it; ≥ and ≤ were set here for values at or beyond the usual limits of such assays"}, "HLA-A*02:01 [5]": {"target": "HLA-A*02:01", "experiment": "IEDB peptide-MHC binding, purified MHC/competitive/radioactivity; filed as Kd, often an IC50 or EC50 that approximates it; ≥ and ≤ were set here for values at or beyond the usual limits of such assays"}, "HLA-A*02:03": {"target": "HLA-A*02:03", "experiment": "IEDB peptide-MHC binding, purified MHC/competitive/radioactivity; filed as Kd, often an IC50 or EC50 that approximates it; ≥ and ≤ were set here for values at or beyond the usual limits of such assays"}, "HLA-A*02:06": {"target": "HLA-A*02:06", "experiment": "IEDB peptide-MHC binding, purified MHC/competitive/radioactivity; filed as Kd, often an IC50 or EC50 that approximates it; ≥ and ≤ were set here for values at or beyond the usual limits of such assays", "conditions": "source organism: Dengue virus 2 Jamaica/1409/1983"}, "HLA-B*08:01": {"target": "HLA-B*08:01", "experiment": "IEDB peptide-MHC binding, purified MHC/competitive/radioactivity; filed as Kd, often an IC50 or EC50 that approximates it; ≥ and ≤ were set here for values at or beyond the usual limits of such assays", "conditions": "source organism: Dengue virus 2 Jamaica/1409/1983"}, "HLA-B*15:01 [6]": {"target": "HLA-B*15:01", "experiment": "IEDB peptide-MHC binding, purified MHC/competitive/radioactivity; filed as Kd, often an IC50 or EC50 that approximates it; ≥ and ≤ were set here for values at or beyond the usual limits of such assays", "conditions": "source organism: Dengue virus 2 Jamaica/1409/1983"}, "HLA-A*31:01": {"target": "HLA-A*31:01", "experiment": "IEDB peptide-MHC binding, purified MHC/competitive/fluorescence; filed as Kd, often an IC50 or EC50 that approximates it; ≥ and ≤ were set here for values at or beyond the usual limits of such assays", "conditions": "source organism: Salmonella enterica subsp. enterica serovar Typhimurium str. LT2"}, "[7]": {"conditions": "source organism: SARS coronavirus Tor2"}, "[8]": {"conditions": "source organism: Mammarenavirus whitewaterense"}, "[9]": {"conditions": "source organism: Dengue virus 2 Thailand/NGS-C/1944"}, "[10]": {"conditions": "source organism: Dengue virus 2 Jamaica/1409/1983"}},
  "data": [
    {"sequence": "ILMNFHQKK", "values": [
      {"measurement": "IC50", "setting": "HLA-A*02:01 [1]", "result": 2470, "unit": "nM"},
      {"measurement": "IC50", "setting": "HLA-A*03:01", "result": 808, "unit": "nM"},
      {"measurement": "IC50", "setting": "HLA-A*11:01", "result": 163, "unit": "nM"},
      {"measurement": "IC50", "setting": "HLA-A*24:02 [2]", "result": 9840, "unit": "nM"},
      {"measurement": "IC50", "setting": "HLA-B*15:01 [3]", "result": 69400, "unit": "nM"}
    ]},
    {"sequence": "IYLNEVNTF", "values": [
      {"measurement": "Kd", "setting": "HLA-A*24:02 [4]; source organism: Vibrio splendidus 12B01", "result": "≤ 0.1", "unit": "nM"}
    ]},
    {"sequence": "KEQYCALSPG", "values": [
      {"measurement": "Kd", "setting": "HLA-B*18:01; [7]", "result": "≥ 70500", "unit": "nM"},
      {"measurement": "Kd", "setting": "HLA-B*40:01; [7]", "result": 4670, "unit": "nM"},
      {"measurement": "Kd", "setting": "HLA-B*40:02; [7]", "result": 831, "unit": "nM"},
      {"measurement": "Kd", "setting": "HLA-B*44:02; [7]", "result": 2610, "unit": "nM"},
      {"measurement": "Kd", "setting": "HLA-B*44:03; [7]", "result": 3460, "unit": "nM"},
      {"measurement": "Kd", "setting": "HLA-B*45:01; [7]", "result": 259, "unit": "nM"}
    ]},
    {"sequence": "KLLTKPWDV", "values": [
      {"measurement": "Kd", "setting": "HLA-A*02:17; source organism: Dengue virus 4 Philippines/H241/1956", "result": 379, "unit": "nM"}
    ]},
    {"sequence": "KLSSTNQLR", "values": [
      {"measurement": "IC50", "setting": "HLA-A*02:01 [1]", "result": "≥ 196000", "unit": "nM"},
      {"measurement": "IC50", "setting": "HLA-A*03:01", "result": 6870, "unit": "nM"},
      {"measurement": "IC50", "setting": "HLA-A*11:01", "result": 2460, "unit": "nM"}
    ]},
    {"sequence": "LEITDVTTL", "values": [
      {"measurement": "Kd", "setting": "HLA-B*18:01; [8]", "result": 462, "unit": "nM"},
      {"measurement": "Kd", "setting": "HLA-B*40:01; [8]", "result": 127, "unit": "nM"},
      {"measurement": "Kd", "setting": "HLA-B*40:02; [8]", "result": 80.1, "unit": "nM"},
      {"measurement": "Kd", "setting": "HLA-B*44:02; [8]", "result": 25.7, "unit": "nM"},
      {"measurement": "Kd", "setting": "HLA-B*44:03; [8]", "result": 61.8, "unit": "nM"},
      {"measurement": "Kd", "setting": "HLA-B*45:01; [8]", "result": "≥ 77700", "unit": "nM"}
    ]},
    {"sequence": "LLVLCVTQV", "values": [
      {"measurement": "Kd", "setting": "HLA-A*02:01 [5]; [9]", "result": 64.9, "unit": "nM"},
      {"measurement": "Kd", "setting": "HLA-A*02:03; source organism: Dengue virus 2 Peru/IQT2913/1996", "result": 38.4, "unit": "nM"},
      {"measurement": "Kd", "setting": "HLA-A*02:17; [9]", "result": "≥ 5000", "unit": "nM"}
    ]},
    {"sequence": "LMMATIGIAL", "values": [
      {"measurement": "Kd", "setting": "HLA-A*02:01 [5]; [10]", "result": 11.2, "unit": "nM"},
      {"measurement": "Kd", "setting": "HLA-A*02:03; [10]", "result": 8.92, "unit": "nM"},
      {"measurement": "Kd", "setting": "HLA-A*02:06", "result": 13.6, "unit": "nM"},
      {"measurement": "Kd", "setting": "HLA-A*02:17; [10]", "result": 171, "unit": "nM"},
      {"measurement": "Kd", "setting": "HLA-B*08:01", "result": 398, "unit": "nM"},
      {"measurement": "Kd", "setting": "HLA-B*15:01 [6]", "result": 6.5, "unit": "nM"}
    ]},
    {"sequence": "LYNKMEFEPF", "values": [
      {"measurement": "Kd", "setting": "HLA-A*24:02 [4]; source organism: Influenza A virus H3N2", "result": 3.3, "unit": "nM"}
    ]},
    {"sequence": "MVGIVHFNK", "values": [
      {"measurement": "Kd", "setting": "HLA-A*24:02 [4]; source organism: Salmonella enterica subsp. enterica serovar Typhimurium str. LT2", "result": 42.9, "unit": "nM"},
      {"measurement": "Kd", "setting": "HLA-A*31:01", "result": 90, "unit": "nM"}
    ]}
  ]
}
